Biological target: PELI1 (UniProt Q96FA3)
Assay: anti-Flag co-immunoprecipitation, immunoblot
Conditions: reference: wild type; sites T382

HPD (from UniProt P32754) T382A
binding against the reference: lost

Reference: article PMC6753076
